Test results reported in the supplement of paper PMC12764529.
± gives the half width of the 95% confidence interval.

Experiments:
[1] = folding stability dG unfold from trypsin proteolysis; higher = more stable
Outline: (§1)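 Unfolding free energy was derived, per protease or combined, by relating Bayesian-fitted K50 values from sequencing counts to a sequence-predicted unfolded-state K50 and a shared folded-state K50. The underlying digests exposed cysteine-free mini-proteins under 80 residues, in a PA-tagged cDNA display construct, to trypsin and chymotrypsin at 11 threefold-diluted concentrations and to a no-protease condition. A filter kept only designs with AlphaFold2 dimer inter-PAE above 15.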

[2] = folding stability dG unfold from chymotrypsin proteolysis; higher = more stable
Outline: as §1

[3] = folding stability dG unfold (combined trypsin and chymotrypsin); higher = more stable
Outline: as §1

| Sequence | folding stability dG unfold [1] | folding stability dG unfold [2] | folding stability dG unfold [3] |
| --- | --- | --- | --- |
| SAGGSAGGSRLGLEEFERIAREIAEELGISDLVAEVEELEDDYALLTIYNPETGEKLEILVPGSAGGSAGGS [r12_1000_TrMRF] | 1.13 ± 0.053 kcal/mol | 0.898 ± 0.025 kcal/mol | 1.07 ± 0.09 kcal/mol |
| SAGGSAGGSSAPPGEVRTEAVSLTVRSTVPITYPNSPTTTLSLTTTLTVTLTREVSPVRPEVESAGGSAGGS [r20_14_JUSTAS] | 2.88 ± 0.21 kcal/mol | 3.84 ± 0.085 kcal/mol | 3.34 ± 0.22 kcal/mol |
| SAGGSAGGSSIGRTEYIPEENLIVREEPETGLTIITKKPPNGPNIVYTIEPETGEKTVEESLISAGGSAGGS [r12_55_JUSTAS] | 0.445 ± 0.067 kcal/mol | -0.0944 ± 0.22 kcal/mol | 0.292 ± 0.2 kcal/mol |
| SAGGSAGGSSLLVLRELADGGVALHLIDVEPDEPVGVETVLDEFRELHPDTPPLPVLILRPDPSAGGSAGGS [r12_262_TrMRF] | 0.251 ± 0.031 kcal/mol | -0.127 ± 0.14 kcal/mol | 0.115 ± 0.073 kcal/mol |
| SAGGSAGGSSMKVEVTVEPVDPARGLYRVTITLYDPNSDTPLKTVPVLAESPEEIEAAILELLSAGGSAGGS [r12_26_JUSTAS] | 2.55 ± 0.11 kcal/mol | 2.91 ± 0.05 kcal/mol | 2.67 ± 0.12 kcal/mol |
| SAGGSAGGSSMLTITKTYTLPPEEIKKIEGKPGVLKVEPFVTPEGKLVVKVEIRLEIGPEKLLLSAGGSAGG [r6_155_JUSTAS] | 0.738 ± 0.11 kcal/mol | 1.11 ± 0.22 kcal/mol | 0.914 ± 0.11 kcal/mol |
| SAGGSAGGSSMPFLNPDGHPAVLVEVDGSTGSLSVELRGPDGRPVLQVSVSVSGPATVTVRVGSAGGSAGGS [r12_960_JUSTAS] | 2.75 ± 0.11 kcal/mol | 2.56 ± 0.086 kcal/mol | 2.61 ± 0.079 kcal/mol |
| SAGGSAGGSSMSSTVEKEPDDVLIISTKVFFDTDTYSTLTTIVEVKPPLDPSNPELLARALGLLSAGGSAGG [r6_293_JUSTAS] | 1.1 ± 0.026 kcal/mol | 1.49 ± 0.039 kcal/mol | 1.3 ± 0.063 kcal/mol |
| SAGGSAGGSSPDWSVKKSTVTVTITFPEEKYFEPETKKEVAKRPVITIEIEIEVVETLPASLISAGGSAGGS [r12_600_JUSTAS] | 1.65 ± 0.067 kcal/mol | 1.44 ± 0.096 kcal/mol | 1.63 ± 0.19 kcal/mol |
| SAGGSAGGSSPPLEILDPVSATLPDGGTLTVAKAAGSYYLVTTTTYDPATGTATSTTTVVPLESAGGSAGGS [r20_15_JUSTAS] | 0.0164 ± 0.088 kcal/mol | 0.827 ± 0.076 kcal/mol | 0.528 ± 0.065 kcal/mol |
| SAGGSAGGSSPSTSSERRIELPGGEEAEVFFYPSSGKILVRFPDREVEYYVEDDGKIVKKDPLSAGGSAGGS [r12_47_JUSTAS] | 0.478 ± 0.063 kcal/mol | 0.0525 ± 0.21 kcal/mol | 0.315 ± 0.13 kcal/mol |
| SAGGSAGGSSSATLAADETATLRFRVTLTFGSGVRSGTADLSGSVSATVEVDVEIEVRNLADDSAGGSAGGS [r12_668_TrMRF] | 3.32 ± 0.056 kcal/mol | 4.62 ± 0.082 kcal/mol | 4.24 ± 0.07 kcal/mol |
| SAGGSAGGSSSMVVIEKEFPDLTPEEVEKLAKEIEEKNPELGKVEVKFKPKKKPKPPLTPEAKKSAGGSAGG [r6_825_JUSTAS] | -0.672 ± 0.21 kcal/mol | 1.29 ± 0.036 kcal/mol | 0.878 ± 0.11 kcal/mol |
| SAGGSAGGSSVSVSFPSSVTKVEPELNDPNLTTFFESPGLVIKVTVVPGTGKVIIEKKPLSELSAGGSAGGS [r12_858_JUSTAS] | 0.858 ± 0.023 kcal/mol | -0.663 ± 0.13 kcal/mol | 0.342 ± 0.053 kcal/mol |
| SAGGSAGGSSVTRLIYLEDGTVLVVKLTPKPLVLPDGKPAFVLGFEVVEIRPVKDPKEALKALSAGGSAGGS [r12_915_TrMRF] | 1.81 ± 0.039 kcal/mol | 1.3 ± 0.081 kcal/mol | 1.61 ± 0.071 kcal/mol |
| SAGGSAGGSSYTTSTATDPNADVTTTTTTYPDSIVTPVWDPRTGKVVETVTTTPDGTTTTVAASAGGSAGGS [r12_563_JUSTAS] | 0.543 ± 0.068 kcal/mol | 0.0262 ± 0.17 kcal/mol | 0.289 ± 0.14 kcal/mol |
| SAGGSAGGSTALVYKNGVTVTFPVFFPDTAPAVVTLSIPSPEEAAAAVAALRAAGHAVTVEPLASAGGSAGG [r6_872_JUSTAS] | 0.96 ± 0.012 kcal/mol | 1.48 ± 0.048 kcal/mol | 1.29 ± 0.031 kcal/mol |
| SAGGSAGGSTIMFKVDSPDELIDKIKIPPGFRVEIMQTPDRYYVMIRPPPSPEQMAKREKNNGSAGGSAGGS [r12_274_TrROS] | 3.35 ± 0.42 kcal/mol | 3.16 ± 0.23 kcal/mol | 3.26 ± 0.41 kcal/mol |
| SAGGSAGGSTIRIRVKTREEAERLAKLIPGARITYDEETKEFYLEIRLPPAPPPSLEELKAALSAGGSAGGS [r20_191_TrROS_Hall] | 3.62 ± 0.062 kcal/mol | 1.96 ± 0.038 kcal/mol | 2.84 ± 0.058 kcal/mol |
| SAGGSAGGSTITITTVIEKDGELYVIEAKIEVTEVYYDKKTKKKVKVKVKIEIKIEKVPLEDLSAGGSAGGS [r12_809_TrROS_Hall] | 2.96 ± 0.56 kcal/mol | 3.28 ± 0.23 kcal/mol | 3.07 ± 0.45 kcal/mol |
| SAGGSAGGSTPELLKKLPPGAKVEVETRLVTNEDGSVYKVVKIKIVDKKTNKTLELELVVKLPSAGGSAGGS [r12_892_TrROS_Hall] | 2.13 ± 0.041 kcal/mol | 1.65 ± 0.052 kcal/mol | 1.96 ± 0.07 kcal/mol |
